This is an account of results in PMC9818519.

The series has as its target His-HAT1 (Homo sapiens) (UniProt O14929). As to the kind of experiment: ELONA. The note with it: ELONA: PBS + 1 mM MgCl2 (selection buffer), 37 °C, 1 h; 100 ng HAT1/well adsorbed; 0.2% BSA block; aptamers heated 95 °C 10 min then ice 10 min.
UniProt O14929, sequence (O14929 whole entry): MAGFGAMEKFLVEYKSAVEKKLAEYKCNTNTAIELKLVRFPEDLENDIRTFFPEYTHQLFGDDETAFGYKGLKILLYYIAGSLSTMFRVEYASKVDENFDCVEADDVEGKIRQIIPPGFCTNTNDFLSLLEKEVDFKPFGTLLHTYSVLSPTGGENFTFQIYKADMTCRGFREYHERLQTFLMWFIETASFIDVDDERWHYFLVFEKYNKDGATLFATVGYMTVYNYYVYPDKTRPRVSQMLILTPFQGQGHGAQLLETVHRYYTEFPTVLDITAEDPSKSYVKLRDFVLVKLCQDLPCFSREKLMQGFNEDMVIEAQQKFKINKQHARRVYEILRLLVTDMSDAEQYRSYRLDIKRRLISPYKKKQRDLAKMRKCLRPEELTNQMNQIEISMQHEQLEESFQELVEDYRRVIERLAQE
As usually defined, the Kd is the equilibrium constant for the complex coming apart. For the sequence “GCGGATGAAGACTGGTGTCGAGGGGGGGGCGGGCGGGTGGGTTGGCTCTTCATGCCTGTGCCC [apHAT63T]”, the Kd amounted to 43.7 nM. Then “GTTGCTCGTATTTAGGGCGGGGGGGCGGGGGAGGAGGTGGCGGGAATATCCATTGTCTACACCAGTCTTCATCCGC [apHAT610 (610R)]”, with 28.1 nM; and “GCGGATGAAGACTGGTGTCGAGGGGGGGGCGGGCGGGTGGGTTGGCTCTTCATGCCTGTGCCCTAAATACGAGCAAC [apHAT63 (63F)]”, with 38 nM.
